Numbering of substitutions follows the chain as printed.
Experiments:
[1] = target: T1, Epstein Barr Virus (EBV) glycoprotein gp350 (Epstein-Barr virus, UniProt P03200 1-860); assay: SPR steady-state affinity plot, 1:1 Langmuir fit (FIG. 11), gp350 immobilised; given as 'affinity constant'
T1 construct: Viral antigen: immunogen, coated in the ELISAs, immobilised on the CM5 chip in SPR; also called EBV gp350; gp350 antigen
T1 sequence: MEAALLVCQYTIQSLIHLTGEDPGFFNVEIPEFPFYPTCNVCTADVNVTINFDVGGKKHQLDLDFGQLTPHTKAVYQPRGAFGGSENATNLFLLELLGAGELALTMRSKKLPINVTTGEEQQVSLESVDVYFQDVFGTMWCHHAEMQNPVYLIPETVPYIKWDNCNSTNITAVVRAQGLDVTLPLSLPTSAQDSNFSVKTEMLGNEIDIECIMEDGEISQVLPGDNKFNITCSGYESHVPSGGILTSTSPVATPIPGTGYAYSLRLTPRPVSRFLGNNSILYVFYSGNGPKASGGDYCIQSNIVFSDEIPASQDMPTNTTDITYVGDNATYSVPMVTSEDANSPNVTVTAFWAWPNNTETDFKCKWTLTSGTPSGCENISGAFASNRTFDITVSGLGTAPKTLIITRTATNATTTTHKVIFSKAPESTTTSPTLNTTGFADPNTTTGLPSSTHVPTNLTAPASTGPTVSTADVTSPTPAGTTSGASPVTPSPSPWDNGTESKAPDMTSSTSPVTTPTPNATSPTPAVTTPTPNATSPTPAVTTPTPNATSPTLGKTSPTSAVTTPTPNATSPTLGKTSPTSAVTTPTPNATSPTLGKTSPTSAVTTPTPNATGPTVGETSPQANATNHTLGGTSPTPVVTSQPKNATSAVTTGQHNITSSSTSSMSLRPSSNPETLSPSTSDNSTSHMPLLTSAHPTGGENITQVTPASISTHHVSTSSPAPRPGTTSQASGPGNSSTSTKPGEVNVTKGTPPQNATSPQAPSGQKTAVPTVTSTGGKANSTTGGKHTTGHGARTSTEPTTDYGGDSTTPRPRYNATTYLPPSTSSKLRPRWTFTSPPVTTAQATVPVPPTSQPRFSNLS

[2] = target: T1, Epstein Barr Virus (EBV) glycoprotein …; assay: SPR (Biacore T100), gp350 immobilised on CM5 chip, antibody as analyte, single cycle kinetics
[3] = target: T1, Epstein Barr Virus (EBV) glycoprotein …; assay: monoclonal phage ELISA on gp350
[4] = target: T1, Epstein Barr Virus (EBV) glycoprotein …; assay: SPR (Biacore T100), steady-state affinity plot, 1:1 Langmuir fit, gp350 immobilised on CM5 sensor chip, antibody as analyte
[5] = target: T1, Epstein Barr Virus (EBV) glycoprotein …; assay: SPR (Biacore T100), single cycle kinetics, gp350 immobilised on CM5 sensor chip, antibody as analyte
[6] = target: T1, Epstein Barr Virus (EBV) glycoprotein …; assay: SPR (Biacore T100), gp350 immobilised on CM5 chip, antibody as analyte, single cycle kinetics; single cycle kinetics (FIG. 10), dissociation constant in nM
[7] = target: T1, Epstein Barr Virus (EBV) glycoprotein …; assay: SPR steady-state affinity plot, 1:1 Langmuir fit (FIG. 11), gp350 immobilised; given as 'affinity constant'; 'affinity constant' in M (FIG. 11)
[8] = target: T1, Epstein Barr Virus (EBV) glycoprotein …; assay: SPR (Biacore T100), gp350 immobilised on CM5 chip, antibody as analyte, single cycle kinetics; single cycle kinetics (FIG. 10), 'dissociation value' in nM
[9] = target: T1, Epstein Barr Virus (EBV) glycoprotein …; assay: SPR steady-state affinity plot, 1:1 Langmuir fit (FIG. 11), gp350 immobilised; printed as 'affinity value'; 'affinity value' in M (FIG. 11)
[10] = target: T1, Epstein Barr Virus (EBV) glycoprotein …; assay: SPR (Biacore T100), gp350 immobilised on CM5 chip, antibody as analyte, single cycle kinetics; single cycle kinetics (FIG. 10), 'KD value' in nM

B1: Clone B8 recombinant human IgG1 monoclonal antibody (antibody, V domains shown)
VH: EVQLVESAGEVQKPGESLRISCKASGYTFSHYWIGWVRQLPGKGLEWMGIIYPDDSDSRYSPSFQGQVTMSVDKSINTAYLQWNSLKVSDTATYYCVRHWLKRGSNFGFGFDPWGQGTTLTVSS
VL: ESALTQPASVSGSPGQSITISCTGTSSDVGGYNYVSWYQQHPGKAPKLMIYDVSNRPSGVSNRFSGSKSGNTASLTISGLQAEDEADYYCSSYTSSSTLVFGGGTKLTVLG
notes: also called antibody B8
Binder B1 has a Kd [1] of 829 nM and a Kd [2] of 33.3 nM.

B2: Clone B8, original phage-displayed antibody fragment (other)
VH: B1 VH
VL: B1 VL
notes: VH and VL are as translated from the PCR products of the original phage clone; also called CloneB8 (phage clone)
Work on B2 yielded an absorbance [3] greater than 1 absorbance.

B3: Clone A11, original phage-displayed antibody fragment (other)
VH: MQLVQSGAEVKKPGASVKVSCKTSGYNFNHQGISWLRQAPGQGLEWMGWISGFNGKTNYAQKFQGRVTMTADRSTTTAYMELRSLRSDDTAVYYCASGGEQWLVQNFVHWGQGTLLTVSS
VL: VLTQEPSLTVSPGGTVTLTCASSTGAVTSGYYPNWFQQKPGQAPRALIYSTSNKHSWTPARFSGSLLGGKAALTLSGVQPEDEAEYYCLLYYGGAWVFGGGTKLTVL
notes: The printed VH and VL begin one or two residues later than those of the other clones, so they may be cut short at the N-terminus; also called CloneA11 (phage clone)
For B3, the absorbance [3] was greater than 1 absorbance.

B4: C10 (antibody, V domains shown)
VH: EVQLVQSGAEVKKPGASVKVSCKASGYTFNAYYIHWVRQAPGQGLDWMGWINPNSGGTNYAQNFKGRVTMTRDTSISTAYLELRSLTSDDTAVYFCATERGYTSSFRRDAFDKWGQGTMLTVSS
VL: EAVVTQPPSASGTPGQGVTISCSGSSSNIGSNFVYWYQQLPGTAPKLLIYRNNQRPSGVPDRFSGSKSATSASLAISGLRSEDEADYYCATWDDSLSGYVFGTGTKLTVLG
notes: Full IgG1 form of phage clone C10, expressed in Expi293F cells; It is not in the list MOLECULES; also called Clone C10 recombinant human IgG1 monoclonal antibody; CloneC10
In the case of B4, the Kd [4] is reported as 663 nM and the Kd [5] is reported as 11.4 nM.

B5: Clone E10, original phage-displayed antibody fragment (other)
VH: B4 VH with K19E, M119L
VL: ESVLTQPPSISAAPGQRVTIPCSGSSSDIGNHYVSWYQQLPGAAPKLLIYEDNKRPSGIPDRFSGSKSGTSASLGITGLQTGDEADYYCGTWDNSLRSGFFGGGTKVTVLG
notes: also called CloneE10 (phage clone)
B5 gave an absorbance [3] greater than 1 absorbance.

B6: Clone D7 recombinant human IgG1 monoclonal antibody (antibody, V domains shown)
VH: B4 VH with K19E
VL: ESVLTQPPSVSAAPGQKVTMSCSGSTSNIGSNSVSWYQHLPGTAPKLLLFDNAKRPSGIPDRFSGSKSGTSATLGITGLQTGDEADYYCGTWDSGLSVMVFGGGTKLTVLG
B6 showed a Kd [6] of 3.86 nM and a Kd [7] of 465 nM.

B7: Clone B7, original phage-displayed antibody fragment (other)
VH: B4 VH with K19E
VL: ESVLTQPPSVSAAPGQKVTISCSGSSSNIGNNYVSWYQQLPGTAPKLLIYENNKRPSGIPDRFSGSKSGTSATLGITGLQTGDEAGYYCGTWDSSLSAVVFGGGTKLTVLG
notes: also called CloneB7 (phage clone)
For B7, the absorbance [3] was greater than 1 absorbance.

B8: Clone E10 recombinant human IgG1 monoclonal antibody (antibody, V domains shown)
VH: B4 VH with K19E, M119L
VL: B5 VL
Binder B8 has a Kd [6] of 2.23 nM and a Kd [7] of 664 nM.

B9: Clone B7 recombinant human IgG1 monoclonal antibody (antibody, V domains shown)
VH: B4 VH with K19E
VL: B7 VL
notes: also called Antibody B7
B9 gave a Kd [8] of 4.07 nM and a Kd [9] of 768 nM.

B10: Clone C10, original phage-displayed antibody fragment (other)
VH: B4 VH
VL: B4 VL
notes: also called CloneC10 (phage clone)
With B10 the absorbance [3] was greater than 1 absorbance.

B11: Clone D7, original phage-displayed antibody fragment (other)
VH: B4 VH with K19E
VL: B6 VL
notes: also called CloneD7 (phage clone)
In the case of B11, the absorbance [3] is reported as greater than 1 absorbance.

B12: Clone A11 recombinant human IgG1 monoclonal antibody (antibody, V domains shown)
VH: EMQLVQSGAEVKKPGASVKVSCKTSGYNFNHQGISWLRQAPGQGLEWMGWISGFNGKTNYAQKFQGRVTMTADRSTTTAYMELRSLRSDDTAVYYCASGGEQWLVQNFVHWGQGTLLTVSS
VL: ETVLTQEPSLTVSPGGTVTLTCASSTGAVTSGYYPNWFQQKPGQAPRALIYSTSNKHSWTPARFSGSLLGGKAALTLSGVQPEDEAEYYCLLYYGGAWVFGGGTKLTVLG
notes: also called Antibody A11
B12 gave a Kd [10] of 0.723 nM and a Kd [7] of 309 nM.
